# Laboratory results as given in patent US9572342B2, “Use of an anthranilic diamide derivatives with heteroaromatic and heterocyclic substituents in combination with a biologicalcontrol agent” (BAYER INTELLECTUAL PROPERTY GMBH, priority 2011, dated 2017).
# B1: Harpin: Harpin protein, isolated from Erwinia amylovora (products known as Messenger, ProAct, Employ) (protein, UniProt Q01099 1-403, looked up)
# Harpin HrpN: MSLNTSGLGASTMQISIGGAGGNNGLLGTSRQNAGLGGNSALGLGGGNQNDTVNQLAGLLTGMMMMMSMMGGGGLMGGGLGGGLGNGLGGSGGLGEGLSNALNDMLGGSLNTLGSKGGNNTTSTTNSPLDQALGINSTSQNDDSTSGTDSTSDSSDPMQQLLKMFSEIMQSLFGDGQDGTQGSSSGGKQPTEGEQNAYKKGVTDALSGLMGNGLSQLLGNGGLGGGQGGNAGTGLDGSSLGGKGLQNLSGPVDYQQLGNAVGTGIGMKAGIQALNDIGTHSDSSTRSFVNKGDRAMAKEIGQFMDQYPEVFGKPQYQKGPGQEVKTDDKSWAKALSKPDDDGMTPASMEQFNKAKGMIKSAMAGDTGNGNLQARGAGGSSLGIDAMMAGDAINNMALGKLGAA
# Assays:
# Type in all cases: in vivo
# [1] = tested on: mustard beetle larvae (Phaedon cochleariae); experiment: Phaedon cochleariae larvae - spray application (Example 1); settings: 48 h, read-out: Mortality in % after 2d
# Procedure: (§1) Solvent: 78.0 parts by weight of acetone
# (§2) • 1.5 parts by weight of dimethylformamide Emulsifier: 0.5 parts by weight of alkylaryl polyglycolether
# To produce a suitable preparation of active compound, 1 part by weight of active compound is mixed with the stated amount of solvent and emulsifier, and the concentrate is diluted with emulsifier-containing water to the desired concentration. The preparation of bacteria, fungi or yeast products contains 10^9-10^10 spores/g or cells/g, the preparation of the virus 10^13 particles/1. To produce a suitable preparation of a biological suspension the cells, viruses or spores are diluted with emulsifier-containing water to the desired concentration.
# Chinese cabbage (Brassica pekinensis) leaf-discs are sprayed with a preparation of the active ingredient of the desired concentration. Once dry, the leaf discs are infested with mustard beetle larvae (Phaedon cochleariae).
# After the specified period of time, mortality in % is determined. 100% means that all the beetle larvae have been killed; 0% means that none of the beetle larvae have been killed. The mortality values thus determined are recalculated using the Colby-formula.
# [2] = tested on: two spotted spider mite (Tetranychus urticae); experiment: Tetranychus urticae test (OP-resistant, spray application) (Example 3); settings: 1.5 g ai/ha
# Procedure: Solvent: 78 parts by weight acetone
# • 1.5 parts by weight dimethylformamide Wetting agent: 0.5 parts by weight alkylarylpolyglcolether
# To produce a suitable preparation of active compound, 1 part by weight of active compound is mixed with the stated amount of solvent and emulsifier, and the concentrate is diluted with emulsifier-containing water to the desired concentration. The preparation of the bacteria, fungi or yeast products contains 10^9-10^10 spores/g or cells/g. To produce a suitable preparation of a biological suspension the cells, viruses or spores are diluted with emulsifier-containing water to the desired concentration.
# French beans (Phaseolus vulgaris) infected with all developmental stages of the two spotted spider mite (Tetranychus urticae), are sprayed with a preparation of the active ingredient at the desired dose rates.
# After the specified period of time, activity in % is determined Thus 100% means that all spider mites have been killed and 0% means that none of the spider mites have been killed. The mortality values determined thus are recalculated using the Colby-formula (see sheet 1).
# [3] = tested on: fall armyworm larvae (Spodoptera frugiperda); experiment: Spodoptera frugiperda - spray application (Example 2); settings: 1.5 g ai/ha
# Procedure: as §1, §2
# To produce a suitable preparation of active compound, 1 part by weight of active compound is mixed with the stated amount of solvent and emulsifier, and the concentrate is diluted with emulsifier-containing water to the desired concentration. The preparation of the bacteria, fungi or yeast products contains 10^9-10^10 spores/g or cells/g, the preparation of the virus 10^13 particles/1. To produce a suitable preparation of a biological suspension the cells, viruses or spores are diluted with emulsifier-containing water to the desired concentration.
# Corn (Zea mais) leaf-discs are sprayed with a preparation of the active ingredient of the desired concentration. Once dry, the leaf discs are infested with fall armyworm larvae (Spodoptera frugiperda).
# After the specified period of time, mortality in % is determined. 100% means that all the caterpillars have been killed; 0% means that none of the caterpillars have been killed. The mortality values thus determined are recalculated using the Colby-formula.
molecule,measurement,setting,value
Cc1ccc(C(C)C)c(O)c1 [Thymol],mortality at 1000 g/ha,[1],0%
B1,Mortality in % after 6d,[2],0%
same,Mortality in % after 2d,[3],0%
